Data as given in patent publication US20220354960A1, “IMMUNE CHECKPOINT BLOCKING BISPECIFIC MOLECULES” (THE SCRIPPS RESEARCH INSTITUTE, priority 2019, published 2022).

What was measured:
[1] = biological target: MC1R on B16-SIY cells (mouse) (UniProt Q01727); assay: cell-based or functional assay
[2] = biological target: human MC1R on HEK293 cells that overexpress it (human) (UniProt Q01726); assay: cell-based or functional assay
[3] = biological target: human PD-L1 (extracellular domain)-Fc fusion protein (human) (UniProt Q9NZQ7); assay: ELISA on human PD-L1 (extracellular domain)-Fc fusion protein
[4] = biological target: human MC1R on HEK293 cells that overexpress it (human) (UniProt Q01726); assay: cell surface ELISA on fixed HEK293-MC1R cells
[5] = biological target: human PD-L1 (extracellular domain)-Fc fusion protein (human) (UniProt Q9NZQ7); assay: ELISA, PD-L1-Fc coated, detection with HRP anti-human kappa light chain antibody

Chain of MC1R on B16-SIY cells (mouse) (Q01727 whole entry): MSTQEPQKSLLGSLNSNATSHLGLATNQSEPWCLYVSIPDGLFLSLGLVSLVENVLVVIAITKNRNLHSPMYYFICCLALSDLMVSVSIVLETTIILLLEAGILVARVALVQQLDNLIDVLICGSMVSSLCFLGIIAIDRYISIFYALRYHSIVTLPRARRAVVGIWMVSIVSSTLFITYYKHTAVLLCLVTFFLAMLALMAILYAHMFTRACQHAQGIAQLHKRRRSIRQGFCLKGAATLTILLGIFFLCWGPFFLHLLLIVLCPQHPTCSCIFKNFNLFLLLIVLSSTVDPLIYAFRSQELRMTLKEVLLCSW
Chain of human MC1R on HEK293 cells that overexpress it (human) (Q01726 whole entry, the tested form may be a part): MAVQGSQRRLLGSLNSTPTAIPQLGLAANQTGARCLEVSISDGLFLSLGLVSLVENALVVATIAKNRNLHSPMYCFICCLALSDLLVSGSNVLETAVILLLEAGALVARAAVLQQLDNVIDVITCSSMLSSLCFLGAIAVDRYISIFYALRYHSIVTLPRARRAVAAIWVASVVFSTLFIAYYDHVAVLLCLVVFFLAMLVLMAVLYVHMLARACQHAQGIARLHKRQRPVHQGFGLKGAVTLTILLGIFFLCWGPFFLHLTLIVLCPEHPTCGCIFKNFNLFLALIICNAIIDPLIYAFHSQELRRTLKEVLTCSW
Chain of human PD-L1 (extracellular domain)-Fc fusion protein (human) (Q9NZQ7 19-238): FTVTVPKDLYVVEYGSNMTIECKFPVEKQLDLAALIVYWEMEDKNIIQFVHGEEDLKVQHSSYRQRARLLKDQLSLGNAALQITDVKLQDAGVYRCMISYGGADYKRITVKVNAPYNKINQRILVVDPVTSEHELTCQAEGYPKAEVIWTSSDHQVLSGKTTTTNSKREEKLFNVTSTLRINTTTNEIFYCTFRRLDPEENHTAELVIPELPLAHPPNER

| Substance | B16-SIY cells cAMP-Glo Assay, EC50 [1] | CRE-Luc reporter in HEK 293 cells overexpressing MC1R, EC50 [2] | EC50 [3] | EC50 [4] | EC50 [5] |
| --- | --- | --- | --- | --- | --- |
| NDP-MSH peptide ([Nle4, D-Phe7]-MSH) | 0.06 nM | 0.09 nM | – | – | – |
| NDP-MSH-Synagis (control antibody Synagis conjugated at the heavy chain N-terminal serine to H2NO-NDP-MSH) | 0.06 nM | – | – | – | – |
| NDP-MSH-αPD-L1 N-terminal conjugate (Atezolizumab with engineered heavy chain N-terminal serine and 8x(G4S) linker, oxime-ligated to H2NO-NDP-MSH, LAR 2) (bispecific antibody) | 0.02 nM | – | 0.087 nM | – | – |
| NDP-MSH-αPD-L1 conjugate (Avelumab with NDP-MSH conjugated to lysines through BCN/PEG24, LAR about 3.5) (bispecific antibody) | – | 2.7 nM | – | 1.72 nM | 0.17 nM |
